Earlier results on one substance are cited in publication PMC2962622.

pKd: −log10 of the molar value.

In the data set the target is NIFK 44-residue phosphopeptide (Homo sapiens) (UniProt Q9BYG3).
Sequence of UniProt Q9BYG3 (Q9BYG3 2-293): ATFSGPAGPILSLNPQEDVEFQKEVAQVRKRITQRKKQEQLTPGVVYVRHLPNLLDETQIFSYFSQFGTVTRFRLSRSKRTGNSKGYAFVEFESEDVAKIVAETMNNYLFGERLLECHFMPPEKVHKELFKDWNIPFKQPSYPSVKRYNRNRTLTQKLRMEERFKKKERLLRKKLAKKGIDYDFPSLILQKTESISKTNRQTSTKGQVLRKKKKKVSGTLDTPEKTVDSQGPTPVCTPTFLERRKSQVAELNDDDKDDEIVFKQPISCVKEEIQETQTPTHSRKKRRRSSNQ

One may read the pKd as −log10 of the Kd, conventionally taken in molar units. For Ki67 FHA (from UniProt P46013), the pKd is 7.11.
